Test results taken from paper PMC11772326.

T1: ZmUB3 (Zea mays, UniProt A0A804P0G2 1-407)
T1 sequence: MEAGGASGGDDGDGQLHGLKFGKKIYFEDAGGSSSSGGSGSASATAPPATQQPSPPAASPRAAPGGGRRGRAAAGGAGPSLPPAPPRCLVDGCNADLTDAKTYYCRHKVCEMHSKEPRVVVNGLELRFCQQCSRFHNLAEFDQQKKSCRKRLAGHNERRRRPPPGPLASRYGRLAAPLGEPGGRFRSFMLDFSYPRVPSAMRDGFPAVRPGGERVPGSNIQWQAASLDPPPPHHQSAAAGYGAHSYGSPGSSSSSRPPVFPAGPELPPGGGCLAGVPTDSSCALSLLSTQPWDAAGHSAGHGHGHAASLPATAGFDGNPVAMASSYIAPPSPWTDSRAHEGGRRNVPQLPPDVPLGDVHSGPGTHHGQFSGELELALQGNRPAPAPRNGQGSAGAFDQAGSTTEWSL


Experiments:
ZmUB3 = molecular target: T1, ZmUB3; experiment: EMSA
ZmMYB42 = ZmMYB42 (Zea mays, UniProt K7V4N7 1-264); experiment: EMSA

Binder | binding result (ZmUB3) | binding result (ZmMYB42)
ZmMYB42 promoter GTAC 40 bp probe (dsDNA) DNA 1: TAACAAGGGCTTAACATGGTACGGTTTATTATATGTCAGA DNA 2: TCTGACATATAATAAACCGTACCATGTTAAGCCCTTGTTA | binds | 
ZmSWEET10 MBS 40 bp probe (dsDNA) DNA 1: TCCCGGCCCTGTGCTGATAACTGTCTCTCTTTATTACGTG DNA 2: CACGTAATAAAGAGAGACAGTTATCAGCACAGGGCCGGGA |  | binds
ZmLHT14 MBS 40 bp probe (dsDNA) DNA 1: GCGGTGCCGGAGTAGATAACTGGTACTACAAAACACAATA DNA 2: TATTGTGTTTTGTAGTACCAGTTATCTACTCCGGCACCGC |  | binds
ZmMYB63 promoter GTAC 40 bp probe (dsDNA) DNA 1: AAGTTTTGCGCACAGTGGTACGGAGGCGGACTGCTCCAAT DNA 2: ATTGGAGCAGTCCGCCTCCGTACCACTGTGCGCAAAACTT | binds | 
ZmSWEET13c MBS 40 bp probe (dsDNA) DNA 1: ATGCTGTATTGAGTCCCCCGTTGTCGGAAATTAAAATTAT DNA 2: ATAATTTTAATTTCCGACAACGGGGGACTCAATACAGCAT |  | binds
